B1: ALK2-Fc (activin receptor like kinase 2, Fc fusion) (Fc fusion)
chain: MEDEKPKVNPKLYMCVCEGLSCGNEDHCEGQQCFSSLSINDGFHVYQKGCFQVYEQGKMTCKTPPSPGQAVECCQGDWCNRNITAQLPTKGKSFPGTQNFHLE
B2: ALK3-Fc (activin receptor like kinase 3, Fc fusion) (Fc fusion)
chain: QNLDSMLHGTGMKSDSDQKKSENGVTLAPEDTLPFLKCYCSGHCPDDAINNTCITNGHCFAIIEEDDQGETTLASGCMKYEGSDFQCKDSPKAQLRRTIECCRTNLCNQYLQPTLPPVVIGPFFDGSIR

Columns and labels:
[1] = biological target: Peptide P3r (randomly shuffled amino acid sequence of peptide P3); assay: SPR
[2] = biological target: Peptide P3 (BMP9 peptide mimetic designed from the type I receptor binding site) (UniProt Q9UK05 320-429); assay: SPR

Kd [1] | Kd [2] | Binder
9.42 mM | 6.7 mM | B1
4.3 mM | 5.8 mM | B2

Source: article PMC6748948 (2019)
